# Data published in article PMC4504005, “Structural Basis for Receptor Activity-Modifying Protein-Dependent Selective Peptide Recognition by a G Protein-Coupled Receptor” (Molecular cell, 2015).
# Several values for one entry are separate records, joined by “and”; a condition that tells them apart may be missing. Equal values may be shown once.
# Legend:
# [1] = molecular target: MBP-RAMP2 ECD [L106R]-(GSA)3-CLR ECD-H6 tethered fusion protein (UniProt O60895); experiment: AlphaScreen or HTRF; competition assay: purified tethered receptor ECD fusion protein with biotin-CGRP or biotin-AM (100 nM each in Figure 6), unlabelled competitor peptide varied; apparent affinities
# [2] = molecular target: MBP-RAMP1 ECD-(GSA)3-CLR ECD-H6 tethered fusion protein (UniProt O60894); experiment: as above
Substance,IC50 [1] [µM],pIC50 [1],pIC50 [2],IC50 [2] [µM]
AM(37–52)NH2 (peptide),–,5,–,–
"CGRP(27–37)NH2 [D31, P34, F35] (peptide)",–,–,6.79,0.46
CGRP(8–37)NH2 (peptide),–,–,5.01,2

# Other lines, results leading:
IC50 [1] [µM],pIC50 [1],pIC50 [2],IC50 [2] [µM],Substance
5 to 15,4.92 and 4.84,–,–,AM(22–52)NH2 (peptide)
–,4.79,6.24,–,CGRPmut [F37Y] (peptide)
